We go through 1 molecule from patent US6379894 (NOVIMAUNE S A, dated 1999).

The assay has as its target T1, purified and recombinant USF1 protein (UniProt P22415 1-310, limits assumed).
T1 construct: also called USF1 recombinant factor; USF1 recombinant proteins
The assay is described as follows: EMSA with recombinant proteins on radiolabelled NGE DNA probe, PhosphoImager. An excerpt:
We then analysed whether STAT1 and USF1 proteins formed the U complex co-operatively after induction by interferon γ. […] Further, adding increasing quantities of activated STAT1 to a given quantity of USF1 in the presence of an excess of free NGE probe encouraged the formation of STAT1/USF1 complexes rather than binding of USF1 alone.

T1 sequence (P22415 whole entry): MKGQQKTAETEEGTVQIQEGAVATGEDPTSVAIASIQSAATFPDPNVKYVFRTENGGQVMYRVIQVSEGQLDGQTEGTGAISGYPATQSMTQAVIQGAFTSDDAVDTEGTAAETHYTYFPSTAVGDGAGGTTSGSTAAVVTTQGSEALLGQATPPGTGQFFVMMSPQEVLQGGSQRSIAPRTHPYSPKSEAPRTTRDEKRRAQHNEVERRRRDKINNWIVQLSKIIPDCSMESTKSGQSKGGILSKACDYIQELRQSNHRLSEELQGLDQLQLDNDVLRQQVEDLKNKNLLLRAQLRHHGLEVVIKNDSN

B1: purified and activated recombinant STAT1 protein (other, UniProt P42224 1-750, looked up)
chain: MSQWYELQQLDSKFLEQVHQLYDDSFPMEIRQYLAQWLEKQDWEHAANDVSFATIRFHDLLSQLDDQYSRFSLENNFLLQHNIRKSKRNLQDNFQEDPIQMSMIIYSCLKEERKILENAQRFNQAQSGNIQSTVMLDKQKELDSKVRNVKDKVMCIEHEIKSLEDLQDEYDFKCKTLQNREHETNGVAKSDQKQEQLLLKKMYLMLDNKRKEVVHKIIELLNVTELTQNALINDELVEWKRRQQSACIGGPPNACLDQLQNWFTIVAESLQQVRQQLKKLEELEQKYTYEHDPITKNKQVLWDRTFSLFQQLIQSSFVVERQPCMPTHPQRPLVLKTGVQFTVKLRLLVKLQELNYNLKVKVLFDKDVNERNTVKGFRKFNILGTHTKVMNMEESTNGSLAAEFRHLQLKEQKNAGTRTNEGPLIVTEELHSLSFETQLCQPGLVIDLETTSLPVVVISNVSQLPSGWASILWYNMLVAEPRNLSFFLTPPCARWAQLSEVLSWQFSSVTKRGLNVDQLNMLGEKLLGPNASPDGLIPWTRFCKENINDKNFPFWLWIESILELIKKHLLPLWNDGCIMGFISKERERALLKDQQPGTFLLRFSESSREGAITFTWVERSQNGGEPDFHAVEPYTKKELSAVTFPDIIRNYKVMAAENIPENPLKYLYPNIDKDHAFGKYYSRPKEAPEPMELDGPKGTGYIKTELISVSEVHPSRLQTTDNLLPMSPEEFDEVSRIVGSVEFDSMMNTV
modifications: activated form (phosphorylated); the residue numbers are not given
notes: also called STAT1 factor
Regarding B1, the “probe bound to the complex, as fold of the sum of probe bound to USF1 alone and STAT1 alone” value was ~2 fold.
